From patent US20140087995A1 (published 2014)
Numbered stars: 1 amine (or outer) side, 2 acyl side, 3 side chain; on linkers, the order of the positions; unused ones are H or OH. Bridge positions count the residues as written; N and C are the ends. Side chains are listed from the residue outwards. Ends that are not written are not given here. * marks the point of attachment. C20 diacid = O=C(O)CCCCCCCCCCCCCCCCCCC(=O)*; γGlu = O=C(O)[C@H](CCC(=O)[*:2])N[*:1]; AEEA = NCCOCCOCC(=O)O

T1: rat calcitonin receptor (rat, UniProt P32214 25-516)
T1 construct: whole, on cells; Used as membranes prepared from BHK tk'ts 13 cells transiently transfected with the rat calcitonin receptor (Assay VIII); also called rCTR; rat calcitonin (a) receptor
T1 sequence (looked up): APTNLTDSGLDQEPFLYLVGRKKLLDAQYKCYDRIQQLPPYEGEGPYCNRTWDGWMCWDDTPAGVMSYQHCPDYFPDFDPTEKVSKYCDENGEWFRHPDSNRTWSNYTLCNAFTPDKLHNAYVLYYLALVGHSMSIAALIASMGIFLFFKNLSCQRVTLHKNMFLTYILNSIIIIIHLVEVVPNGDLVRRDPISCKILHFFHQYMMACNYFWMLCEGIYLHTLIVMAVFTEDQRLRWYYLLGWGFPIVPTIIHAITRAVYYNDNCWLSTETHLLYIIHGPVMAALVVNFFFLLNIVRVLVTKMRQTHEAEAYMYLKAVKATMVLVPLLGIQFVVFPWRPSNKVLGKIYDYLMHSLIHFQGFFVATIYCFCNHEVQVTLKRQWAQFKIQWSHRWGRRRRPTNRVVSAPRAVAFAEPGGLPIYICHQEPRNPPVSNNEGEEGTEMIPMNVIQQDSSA

T2: human calcitonin receptor (human, UniProt P30988 25-474)
T2 construct: whole, on cells; Used as membranes prepared from a BHK tk'ts 13 cell line stably transfected with the human calcitonin receptor (Assay VII); also called hCTR; hCT
T2 sequence (looked up): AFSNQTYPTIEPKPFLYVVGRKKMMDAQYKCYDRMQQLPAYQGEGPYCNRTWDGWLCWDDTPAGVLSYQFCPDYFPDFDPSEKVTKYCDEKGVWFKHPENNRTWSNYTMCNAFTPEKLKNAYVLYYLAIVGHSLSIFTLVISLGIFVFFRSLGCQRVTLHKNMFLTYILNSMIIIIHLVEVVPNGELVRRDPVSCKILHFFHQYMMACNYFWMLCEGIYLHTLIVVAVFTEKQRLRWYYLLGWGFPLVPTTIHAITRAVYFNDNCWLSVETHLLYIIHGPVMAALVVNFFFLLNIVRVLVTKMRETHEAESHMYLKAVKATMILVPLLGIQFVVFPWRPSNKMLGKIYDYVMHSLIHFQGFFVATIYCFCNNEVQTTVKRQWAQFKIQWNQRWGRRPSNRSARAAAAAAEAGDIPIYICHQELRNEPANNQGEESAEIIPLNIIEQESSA

T3: rat amylin receptor (rat calcitonin receptor + rat RAMP 3) (rat, UniProt P32214 25-516; Q9JJ73 23-147)
T3 construct: whole, on cells; Used as membranes prepared from BHK tk'ts 13 cells transiently transfected with rat calcitonin receptor and rat RAMP 3 (Assay VI); also called rAmylin-R; rat amylin 3(a) receptor
T3 sequence (looked up) 1: T1 sequence (looked up)
T3 sequence (looked up) 2: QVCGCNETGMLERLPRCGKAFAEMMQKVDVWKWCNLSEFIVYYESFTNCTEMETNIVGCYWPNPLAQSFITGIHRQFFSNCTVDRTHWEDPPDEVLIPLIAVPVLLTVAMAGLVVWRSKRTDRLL

B1: N^ε1-[2-[2-[2-(19-carboxynonadecanoylamino)ethoxy]ethoxy]acetyl]-[Arg17,Pro21,Pro27]-h-amylin (peptide)
peptide: K([AEEA-C20 diacid])CNTATCATQRLANFLRHSSPNFGAIPSSTNVGSNTY-NH2
modifications: disulfide 2-7; N-terminus assumed
SMILES: CC[C@H](C)[C@H](NC(=O)[C@H](C)NC(=O)CNC(=O)[C@H](Cc1ccccc1)NC(=O)[C@H](CC(N)=O)NC(=O)[C@@H]1CCCN1C(=O)[C@H](CO)NC(=O)[C@H](CO)NC(=O)[C@H](Cc1c[nH]cn1)NC(=O)[C@H](CCCNC(=N)N)NC(=O)[C@H](CC(C)C)NC(=O)[C@H](Cc1ccccc1)NC(=O)[C@H](CC(N)=O)NC(=O)[C@H](C)NC(=O)[C@H](CC(C)C)NC(=O)[C@H](CCCNC(=N)N)NC(=O)[C@H](CCC(N)=O)NC(=O)[C@@H](NC(=O)[C@H](C)NC(=O)[C@@H]1CSSC[C@H](NC(=O)[C@@H](N)CCCCNC(=O)COCCOCCNC(=O)CCCCCCCCCCCCCCCCCCC(=O)O)C(=O)N[C@@H](CC(N)=O)C(=O)N[C@@H]([C@@H](C)O)C(=O)N[C@@H](C)C(=O)N[C@@H]([C@@H](C)O)C(=O)N1)[C@@H](C)O)C(=O)N1CCC[C@H]1C(=O)N[C@@H](CO)C(=O)N[C@@H](CO)C(=O)N[C@H](C(=O)N[C@@H](CC(N)=O)C(=O)N[C@H](C(=O)NCC(=O)N[C@@H](CO)C(=O)N[C@@H](CC(N)=O)C(=O)N[C@H](C(=O)N[C@@H](Cc1ccc(O)cc1)C(N)=O)[C@@H](C)O)C(C)C)[C@@H](C)O
notes: Analogue of human amylin; also called compound 43
B2: N^ε1-[2-[2-[2-[[(4S)-4-carboxy-4-(19-carboxynonadecanoylamino)butanoyl]amino]ethoxy]ethoxy]acetyl]-[Ala14,Arg17,Pro21,Pro27,Pro31]-h-amylin (peptide)
peptide: K([AEEA-γGlu-C20 diacid])CNTATCATQRLAAFLRHSSPNFGAIPSSTPVGSNTY-NH2
modifications: disulfide 2-7; N-terminus assumed
SMILES: CC[C@H](C)[C@H](NC(=O)[C@H](C)NC(=O)CNC(=O)[C@H](Cc1ccccc1)NC(=O)[C@H](CC(N)=O)NC(=O)[C@@H]1CCCN1C(=O)[C@H](CO)NC(=O)[C@H](CO)NC(=O)[C@H](Cc1c[nH]cn1)NC(=O)[C@H](CCCNC(=N)N)NC(=O)[C@H](CC(C)C)NC(=O)[C@H](Cc1ccccc1)NC(=O)[C@H](C)NC(=O)[C@H](C)NC(=O)[C@H](CC(C)C)NC(=O)[C@H](CCCNC(=N)N)NC(=O)[C@H](CCC(N)=O)NC(=O)[C@@H](NC(=O)[C@H](C)NC(=O)[C@@H]1CSSC[C@H](NC(=O)[C@@H](N)CCCCNC(=O)COCCOCCNC(=O)CC[C@H](NC(=O)CCCCCCCCCCCCCCCCCCC(=O)O)C(=O)O)C(=O)N[C@@H](CC(N)=O)C(=O)N[C@@H]([C@@H](C)O)C(=O)N[C@@H](C)C(=O)N[C@@H]([C@@H](C)O)C(=O)N1)[C@@H](C)O)C(=O)N1CCC[C@H]1C(=O)N[C@@H](CO)C(=O)N[C@@H](CO)C(=O)N[C@H](C(=O)N1CCC[C@H]1C(=O)N[C@H](C(=O)NCC(=O)N[C@@H](CO)C(=O)N[C@@H](CC(N)=O)C(=O)N[C@H](C(=O)N[C@@H](Cc1ccc(O)cc1)C(N)=O)[C@@H](C)O)C(C)C)[C@@H](C)O
notes: Analogue of human amylin; also called compound 72
B3: N^ε1-[2-[2-[2-[[(4S)-4-carboxy-4-(19-carboxynonadecanoylamino)butanoyl]amino]ethoxy]ethoxy]acetyl]-[Arg14,Arg17,Pro21,Pro27,Pro31]-h-amylin (peptide)
peptide: K([AEEA-γGlu-C20 diacid])CNTATCATQRLARFLRHSSPNFGAIPSSTPVGSNTY-NH2
modifications: disulfide 2-7; N-terminus assumed
SMILES: CC[C@H](C)[C@H](NC(=O)[C@H](C)NC(=O)CNC(=O)[C@H](Cc1ccccc1)NC(=O)[C@H](CC(N)=O)NC(=O)[C@@H]1CCCN1C(=O)[C@H](CO)NC(=O)[C@H](CO)NC(=O)[C@H](Cc1c[nH]cn1)NC(=O)[C@H](CCCNC(=N)N)NC(=O)[C@H](CC(C)C)NC(=O)[C@H](Cc1ccccc1)NC(=O)[C@H](CCCNC(=N)N)NC(=O)[C@H](C)NC(=O)[C@H](CC(C)C)NC(=O)[C@H](CCCNC(=N)N)NC(=O)[C@H](CCC(N)=O)NC(=O)[C@@H](NC(=O)[C@H](C)NC(=O)[C@@H]1CSSC[C@H](NC(=O)[C@@H](N)CCCCNC(=O)COCCOCCNC(=O)CC[C@H](NC(=O)CCCCCCCCCCCCCCCCCCC(=O)O)C(=O)O)C(=O)N[C@@H](CC(N)=O)C(=O)N[C@@H]([C@@H](C)O)C(=O)N[C@@H](C)C(=O)N[C@@H]([C@@H](C)O)C(=O)N1)[C@@H](C)O)C(=O)N1CCC[C@H]1C(=O)N[C@@H](CO)C(=O)N[C@@H](CO)C(=O)N[C@H](C(=O)N1CCC[C@H]1C(=O)N[C@H](C(=O)NCC(=O)N[C@@H](CO)C(=O)N[C@@H](CC(N)=O)C(=O)N[C@H](C(=O)N[C@@H](Cc1ccc(O)cc1)C(N)=O)[C@@H](C)O)C(C)C)[C@@H](C)O
notes: Analogue of human amylin; also called compound 64

biological target: T1, rat calcitonin receptor; assay: IC50 on rat CTR divided by IC50 on rat amylin receptor (Assays VIII/VI)

| Ratio rCT/rAmylin binding | Binder |
| --- | --- |
| 69.1 | B1 |
| 259 | B2 |
| 64.7 | B3 |

biological target: T2, human calcitonin receptor; assay: IC50 on human CTR divided by IC50 on human amylin receptor (Assays VII/V)
Protocol: The resulting pellet was resuspended, homogenized and centrifuged (20.000 rpm, 15 min) in a buffer containing 20 mM Na-HEPES and 0.1 mM EDTA (pH 7.4, buffer 2). The resulting pellet was resuspended in buffer 2 and protein concentration was measured (BCA protein Assay, Pierce). The homogenate was kept cold during the whole procedure. The membranes were kept at −80° C. until use. The assay was performed in a 384 well Optiplate (PerkinElmer) in a total volume of 40 ul. Membranes were mixed with SPA beads. Final concentration of membranes 35 ng/μL final and SPA beads was 0.05 mg/well. Test-compounds were dissolved in DMSO and further diluted in assay buffer (50 mM Hepes, pH 7.4, 1 mM CaCl2, 5 mM MgCl₂, 0.1% OA and 0.02% Tween20). […] The final mixture was incubated with shaking at 400 rpm for 120 min at 25° C. prior to centrifugation (1500 rpm, 10 min). Samples were analyzed on TopCounter™ (Packard). The IC₅₀ was calculated using (one site binding competition analysis) GraphPad Prism5 as a measure of receptor affinity.
Membranes were prepared in the following way; the cells were rinsed with PBS and incubated with Versene for approximately 5 min before harvesting. The cells were flushed with PBS and the cell-suspension was centrifuged for 5 min at 1000 rpm. Cells were homogenized (Ultrathurrax) in a buffer containing 20 mM Na-HEPES and 10 mM EDTA (pH 7.4) and centrifuged at 20.000 rpm for 15 min. The resulting pellet was resuspended, homogenized and centrifuged (20.000 rpm, 15 min) in a buffer containing 20 mM Na-HEPES and 0.1 mM EDTA (pH 7.4, buffer 2). The resulting pellet was resuspended in buffer 2 and protein concentration was measured (BCA protein Assay, Pierce). The homogenate was kept cold during the whole procedure. The membranes were kept at −80° C. until use. Assay was performed in a 384 well Optiplate (PerkinElmer) in a total volume of 40 ul. Membranes were mixed with SPA beads.

| Ratio hCT/hAmylin binding | Binder |
| --- | --- |
| 34.7 | B1 |
| 247 | B2 |
| 126 | B3 |

biological target: T1, rat calcitonin receptor; assay: SPA competition with 125I-calcitonin, membranes of BHK cells with rat CTR (Assay VIII)

| IC50 [nM] | Binder |
| --- | --- |
| 7.6 | B1 |
| 221 | B2 |
| 128 | B3 |

biological target: T3, rat amylin receptor (rat calcitonin …); assay: SPA competition with 125I-rat amylin, membranes of BHK cells with rat CTR + rat RAMP3 (Assay VI)
Protocol: The binding assay was performed using scintillation proximity assay (SPA) beads (RPNQ0001) from PerkinElmer and cell membranes from the Amylin 3(a)/CRE-luc cells (as described in Assay (II)) were used. Membranes were prepared in the following way; the cells were rinsed with PBS and incubated with Versene for approximately 5 min before harvesting. The cells were flushed with PBS and the cell-suspension was centrifuged for 5 min at 1000 rpm. Cells were homogenized (ultrathurrax) in a buffer containing 20 mM Na-HEPES and 10 mM EDTA (pH 7.4) and centrifuged at 20.000 rpm for 15 min. The resulting pellet was resuspended, homogenized and centrifuged (20.000 rpm, 15 min) in a buffer containing 20 mM Na-HEPES and 0.1 mM EDTA (pH 7.4, buffer 2). The resulting pellet was resuspended in buffer 2 and protein concentration was measured (BCA protein Assay, Pierce). The homogenate was kept cold during the whole procedure. The membranes were kept at −80° C. until use. The assay was performed in a 384 well Optiplate (PerkinElmer) in a total volume of 40 ul. Membranes were mixed with SPA beads. Final concentration of membranes 35 ng/μL final and SPA beads was 0.05 mg/well. Test-compounds were dissolved in DMSO and further diluted in assay buffer (50 mM Hepes, pH 7.4, 1 mM CaCl2, 5 mM MgCl₂, 0.1% OA and 0.02% Tween20). […] The final mixture was incubated with shaking at 400 rpm for 120 min at 25° C. prior to centrifugation (1500 rpm, 10 min). Samples were analyzed on TopCounter™ (Packard). The IC₅₀ was calculated using (one site binding competition analysis) GraphPad Prism5 as a measure of receptor affinity.
Cells were grown in DMEM with 10% FBS and 1% Pen/Strep. Approximately 48 hours after transfection, the cells were harvested and membranes were prepared.

| IC50 [nM] | Binder |
| --- | --- |
| 0.11 | B1 |
| 0.851 | B2 |
| 1.97 | B3 |
